{
  "source": "paper PMC6177447",
  "about": "“Cryo-EM structure of the hibernating Thermus thermophilus 100S ribosome reveals a protein-mediated dimerization mechanism” (Nature Communications, 2018)",
  "proteins": {"B1": {"name": "Thermus thermophilus hibernation-promoting factor (TtHPF) (natural protein, UniProt Q5SIS0 1-186, looked up)", "chain": "MNIYKLIGRNLEITDAIRDYVEKKLARLDRYQDGELMAKVVLSLAGSPHVEKKARAEIQVDLPGGLVRVEEEDADLYAAIDRAVDRLETQVKRFRERRYVGKRHSYQGPPPPEVRDLEALRKPEEEEGPRIVRVKRFEMKPMDPEEAAFQMEALGHSFFVFRNAKTDEINVIYRRKDGNYGLIEPA", "notes": "Hibernation-promoting factor TtHPF of Thermus thermophilus, UniProt Q5SIS0; gene amplified from genomic DNA with primers from the start codon to the stop codon; residues 2-122 (NTD and linker) and 129-185 (CTD) were modelled in the cryo-EM maps; The forward primer encodes a TEV site (ENLYFQG) directly before Met1, so a Gly probably remains at the N-terminus after TEV cleavage (surmised); The …"}},
  "biological_target": "the molecule itself",
  "experiment": "SEC; purified TtHPF without ribosome on Superdex200 Increase 10/300 in buffer F (20 mM Hepes/KOH pH 7.5, 100 mM KCl, 10% v/v glycerol, 1 mM DTT); elution volume compared to standard proteins",
  "data": [
    {"protein": "B1", "values": [
      {"measurement": "stoichiometry N", "value": 2}
    ]}
  ]
}
